In patent US20060258562:

Molecular target: STAT3 (Signal Transducer and Activator of Transcription 3), P42227
Sequence (P42227 2-770): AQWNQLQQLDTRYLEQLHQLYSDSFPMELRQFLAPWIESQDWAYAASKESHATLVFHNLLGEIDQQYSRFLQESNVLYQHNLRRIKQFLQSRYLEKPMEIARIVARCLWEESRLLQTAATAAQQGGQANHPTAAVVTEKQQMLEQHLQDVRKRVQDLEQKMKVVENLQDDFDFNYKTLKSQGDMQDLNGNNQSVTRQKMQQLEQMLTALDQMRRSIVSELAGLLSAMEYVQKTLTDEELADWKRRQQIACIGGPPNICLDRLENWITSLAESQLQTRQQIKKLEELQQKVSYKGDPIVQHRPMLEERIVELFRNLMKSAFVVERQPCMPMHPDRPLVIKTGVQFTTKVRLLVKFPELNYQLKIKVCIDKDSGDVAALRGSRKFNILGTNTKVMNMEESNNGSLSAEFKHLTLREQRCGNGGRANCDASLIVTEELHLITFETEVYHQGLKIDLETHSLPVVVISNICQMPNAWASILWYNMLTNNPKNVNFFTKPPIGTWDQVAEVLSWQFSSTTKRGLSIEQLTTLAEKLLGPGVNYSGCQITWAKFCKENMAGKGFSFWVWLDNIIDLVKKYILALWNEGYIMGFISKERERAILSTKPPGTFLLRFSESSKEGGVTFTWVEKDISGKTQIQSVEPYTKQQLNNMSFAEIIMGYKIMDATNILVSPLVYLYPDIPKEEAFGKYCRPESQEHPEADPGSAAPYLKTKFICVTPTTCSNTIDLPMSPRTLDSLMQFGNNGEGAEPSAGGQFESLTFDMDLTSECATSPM

B1: PKCδ (protein kinase C delta) (protein)
chain: MAPFLRISFNSYELGSLQVEDEASQPFCAVKMKEALSTERGKTLVQKKPTMYPEWKTTFDAHIYEGRVIQIVLMRAAEDPVSEVTVGVSVLAERCKKNNGKAEFWLDLQPQAKVLMCVQYFLEDGDCKQSMRSEEEAKFPTMNRRGAIKQAKIHYIKNHEFIATFFGQPTFCSVCKEFVWGLNKQGYKCRQCNAAIHKKCIDKIIGRCTGTATNSRDTIFQKERFNIDMPHRFKVYNYMSPTFCDHCGSLLWGLVKQGLKCEDCGMNVHHKCREKVANLCGINQKLLAEALNQVTQRSSRKLDTTESVGIYQGFEKKPEVSGSDILDNNGTYGKIWEGSTRCTLENFTFQKVLGKGSFGKVLLAELKGKDKYFAIKCLKKDVVLIDDDVECTMVEKRVLALAWESPFLTHLICTFQTKDHLFFVMEFLNGGDLMFHIQDKGRFELYRATFYAAEIICGLQFLHSKGIIYRDLKLDNVMLDRDGHIKIADFGMCKENIFGEGRASTFCGTPDYIAPEILQGLKYSFSVDWWSFGVLLYEMLIGQSPFHGDDEDELFESIRVDTPHYPRWITKESKDIMEKLFERDPDKRLGVTGNIRIHPFFKTINWSLLEKRKVEPPFKPKVKSPSDYSNFDPEFLNEKPQLSFSDKNLIDSMDQEAFHGFSFVNPKFEQFLDI
immunofluorescence with antiphospho-Tyr-705-STAT3 antibody after insulin stimulation, with or without rottlerin: Following insulin stimulation, PKCδ is activated and in turn phosphorylates and activates STAT3
